Data set [1] deals with T1, Protein arginine N-methyltransferase 2 (PRMT2), full-length, wild type (human, UniProt P55345-1 1-433).
T1 construct: PRMT2, human, UniProt P55345-1 as printed; cloned in pET28a(+); also called WT PRMT2; native PRMT2; source: E. coli Arctic Express (DE3), purified (Ni-NTA, Superdex 200 SEC)
T1 sequence (looked up): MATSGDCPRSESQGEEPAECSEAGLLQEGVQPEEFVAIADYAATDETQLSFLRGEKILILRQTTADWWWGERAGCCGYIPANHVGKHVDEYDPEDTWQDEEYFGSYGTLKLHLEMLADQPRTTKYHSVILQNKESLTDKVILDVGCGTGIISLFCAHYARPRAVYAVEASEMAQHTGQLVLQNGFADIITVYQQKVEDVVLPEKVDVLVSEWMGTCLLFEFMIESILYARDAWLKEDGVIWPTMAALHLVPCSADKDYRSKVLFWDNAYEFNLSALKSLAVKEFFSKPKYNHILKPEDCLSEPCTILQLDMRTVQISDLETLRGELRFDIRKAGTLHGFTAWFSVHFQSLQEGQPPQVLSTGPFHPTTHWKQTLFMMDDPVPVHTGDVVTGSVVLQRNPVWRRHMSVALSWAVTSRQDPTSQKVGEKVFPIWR
As to the kind of experiment: differential scanning fluorimetry; 5 uM PRMT2, PRMT2ΔSH3 or PRMT2H112Q with 0-500 uM peptide, 7.5x SYPRO Orange, 50 mM Hepes pH 8.0, 10 mM NaCl, 1.0 mM DTT; 30 min at room temperature, heated 25-80 °C; KD from Tm against ligand concentration, single site model. The settings on record: both partners purified.

Data set [2] addresses Protein arginine N-methyltransferase 1 (PRMT1) (human) (UniProt Q99873).
Data set [3] concerns the molecule itself. As to the kind of experiment: native gel or EMSA; mCer-PRMT1 and mCit-PRMT2, 1 uM each, alone or mixed, 1 h at 37 °C in methylation buffer without SAH or H3 peptide; 4-20% native PAGE, fluorescence imaging.

Sequence of Protein arginine N-methyltransferase 1 (PRMT1) (human) (Q99873 other isoform, or with tags, fused parts or gaps): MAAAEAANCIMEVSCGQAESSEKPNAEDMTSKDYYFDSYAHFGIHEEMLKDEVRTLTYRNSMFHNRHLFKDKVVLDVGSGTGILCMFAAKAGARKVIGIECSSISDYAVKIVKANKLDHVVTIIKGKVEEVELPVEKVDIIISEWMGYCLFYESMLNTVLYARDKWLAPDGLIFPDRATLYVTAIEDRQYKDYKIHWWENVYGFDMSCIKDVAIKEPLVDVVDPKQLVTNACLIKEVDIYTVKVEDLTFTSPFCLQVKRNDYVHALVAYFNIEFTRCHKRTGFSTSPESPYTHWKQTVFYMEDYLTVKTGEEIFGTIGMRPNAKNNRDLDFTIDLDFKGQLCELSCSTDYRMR

B1: Histone H4 peptide (Ac-SGRGKGGKGLGKGGAKR) (peptide)
peptide: SGRGKGGKGLGKGGAKR
modifications: N-terminal acetylation
notes: N-terminal tail of histone H4; source: synthetic peptide, bought: Canada Peptide
B1: in data set [1], the “ΔTm at 500 μM peptide” value was 5.87 °C.

B2: Protein arginine N-methyltransferase 2 (PRMT2), full-length, wild type (enzyme)
chain: T1 sequence (looked up)
B2 had a methylation signal of histone H2A at 50 ug/ml calf thymus histones, PRMT1 100 nM with 10-fold excess of PRMT2, densitometry of phosphor images in data set [2] of 3 fold.

B3: mCit-PRMT2 (mCitrine fusion of PRMT2) (enzyme, human, UniProt P55345-1 1-433, looked up)
chain: T1 sequence (looked up)
notes: PRMT2, human, UniProt P55345-1 printed for PRMT2 in the same sentence; cloned in pET28a(+); also called mCitrine-PRMT2; source: E. coli Arctic Express (DE3), purified (Ni-NTA, Superdex 200 SEC)
For B3, in data set [3], the binding result is listed as “binds”.
